Data from article PMC7005744, “Cis- and trans-regulations of pre-mRNA splicing by RNA editing enzymes influence cancer development”.

Legend:
ADAR2 = ADAR2 (UniProt P78563 1-741); assay: EMSA; dose-dependent shift; REMSA/UV: 0.5 pmol 32P probe, 1x REMSA binding buffer (Thermo), 0.1 ug/ul yeast tRNA, room temperature 30 min, 6% native PAGE; pull-down: 250 mM NaCl, 10 mM MgCl2, 50 mM Hepes pH 7.4, 0.5% Igepal CA-630, tRNA, 4 C or RT 30 min; conditions: protein: recombinant; tags: FLAG; chain copies: 2; label: 5' 32P; hairpin
ADAR1 = molecular target: T1, ADAR1 (UniProt P55265 296-1226); assay: as above; conditions: protein: recombinant; tags: FLAG; chain copies: 2; label: 5' 32P; hairpin
T1 sequence: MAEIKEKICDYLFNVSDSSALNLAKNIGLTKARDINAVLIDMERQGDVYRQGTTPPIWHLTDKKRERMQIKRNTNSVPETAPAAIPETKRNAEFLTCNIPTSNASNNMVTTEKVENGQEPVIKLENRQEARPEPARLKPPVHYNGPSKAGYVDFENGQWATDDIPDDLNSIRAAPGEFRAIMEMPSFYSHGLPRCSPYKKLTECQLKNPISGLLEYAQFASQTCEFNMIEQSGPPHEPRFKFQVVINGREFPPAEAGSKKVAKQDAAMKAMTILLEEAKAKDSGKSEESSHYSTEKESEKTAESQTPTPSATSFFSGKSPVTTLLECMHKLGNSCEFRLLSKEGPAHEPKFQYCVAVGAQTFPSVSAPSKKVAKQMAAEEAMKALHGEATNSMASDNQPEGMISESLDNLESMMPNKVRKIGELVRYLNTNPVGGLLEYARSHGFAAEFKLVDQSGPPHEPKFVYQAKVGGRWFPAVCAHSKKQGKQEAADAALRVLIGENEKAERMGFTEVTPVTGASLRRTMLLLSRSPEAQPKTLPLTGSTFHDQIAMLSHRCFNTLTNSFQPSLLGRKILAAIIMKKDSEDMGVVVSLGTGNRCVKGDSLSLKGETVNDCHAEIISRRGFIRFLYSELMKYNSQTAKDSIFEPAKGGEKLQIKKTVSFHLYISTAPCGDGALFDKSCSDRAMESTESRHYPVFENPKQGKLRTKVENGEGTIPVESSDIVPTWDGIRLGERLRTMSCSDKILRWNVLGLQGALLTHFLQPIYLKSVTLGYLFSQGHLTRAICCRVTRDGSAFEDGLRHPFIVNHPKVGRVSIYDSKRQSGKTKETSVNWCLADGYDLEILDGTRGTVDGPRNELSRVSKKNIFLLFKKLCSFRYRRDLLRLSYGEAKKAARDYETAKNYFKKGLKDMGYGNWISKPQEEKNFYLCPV

## GGUAGAAAAGAAAAAUGACACUCGAGUGUUUUUUUCUCUUCUACUU (structured_RNA) [CCDC15 In8-9 WT]
ADAR2
  binding result: binds
ADAR1
  binding result: binds
